The source of these data is article PMC6637868.

This data set deals with 6His-CspA (Xanthomonas oryzae pv. oryzae PXO99A, UniProt A0ACG7R7F9 8-71). As to the kind of experiment: EMSA. The note with it: protein: recombinant; tags: N-terminal His6 (pET-30a-c(+)); label: 3' biotin. (In EMSA bound probe runs differently from free probe, usually more slowly.)

B1: PXO_RS11830 promoter probe (dsDNA)
DNA 1: CTGGCGGACGCCAATAGCGGTTGAATGGGCAAGAGGATCT
DNA 2: AGATCCTCTTGCCCATTCAACCGCTATTGGCGTCCGCCAG
Regarding B1, the binding result is “binds”.

B2: PXO_RS01060 promoter probe (dsDNA)
DNA 1: ATGATGTCGCCCAATCCCTGACCAGATCGATGCGCATGCA
DNA 2: TGCATGCGCATCGATCTGGTCAGGGATTGGGCGACATCAT
Take B2: the binding result is on record as “binds”.
